± gives the uncertainty stated by the source.
B1: library; numbered along this chain (parent)
chain: MEVVDPQQLGMFTEGELMSVGMDTFIHRIDSTEVIYQPRRKRAKLIGKYLMGDLLGEGSYGKVKEVLDSETLCRRAVKILKKKKLRRIPNGEANVKKEIQLLRRLRHKNVIQLVDVLYNEEKQKMYMVMEYCVCGMQEMLDSVPEKRFPVCQAHGYFCQLIDGLEYLHSQGIVHKDIKPGNLLLTTGGTLKISDLGVAEALHPFAADDTCRTSQGSPAFQPPEIANGLDTFSGFKVDIWSAGVTLYNITTGLYPFEGDNIYKLFENIGKGSYAIPGDCGPPLSDLLKGMLEYEPAKRFSIRQIRQHSWFRKKHPPAEAPVPIPPSPDTKDRWRSMTVVPYLEDLHGADEDEDLFDIEDDIIYTQDFTVPGQVPEEEASHNGQRRGLPKAVCMNGTEAAQLSTKSRAEGRAPNPARKACSASSKIRRLSACKQQ

Variants of: B1
Experiment: STK11 functional score (HeLa growth suppression), rescaled enrichment; synonymous median = 1, nonsense median = 0 (normalised score)
Settings: with HeLa; variant type: missense
Summary of the method: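 The functional score takes the post/pre-selection log ratio, corrects it to wild type, rescales it to synonymous and nonsense medians, and merges it over codons and replicate transfections, with error from bootstrapping. Counts came from tiled gDNA amplicons sequenced on NextSeq (~2 million reads per tile). The libraries were POPCode codon-randomised, codon-optimised STK11 integrated by Bxb1 at an AAVS1 landing pad in HeLa, three regions with three transfections each.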

STK11 functional score of substitutions, site by site:
R425: H 1.56 ± 0.17, L 1.4 ± 0.26, A 1.59 ± 0.21, T 1.52 ± 0.27, Y 1.54 ± 0.29, N 1.62 ± 0.25, V 0.938 ± 0.18, S 1.54 ± 0.39, G 1.55 ± 0.27, C 1.27 ± 0.36, E 1.23 ± 0.47, P 1.51 ± 0.24, I 0.977 ± 0.41, M 1.51 ± 0.29, W 1.03 ± 0.14, F 1.11 ± 0.54, D 1.61 ± 0.26
Q433: R 0.937 ± 0.57, H 1.2 ± 0.34
K416: W 0.693 ± 0.27, D 1.61 ± 0.12, T 1.37 ± 0.65, M 1.67 ± 0.35, G 1.55 ± 0.31, V 1.39 ± 0.36, S 1.55 ± 0.2, C 1.14 ± 0.2, Q 1.46 ± 0.38, I 1.55 ± 0.19, H 1.42 ± 0.19, P 1.61 ± 0.21, L 0.986 ± 0.17, Y 1.2 ± 0.58, F 0.683 ± 0.49, N 0.923 ± 0.4, R 1.54 ± 0.16
L427: N 1.63 ± 0.25, Y 0.805 ± 0.33, H 1.4 ± 0.25, A 1.6 ± 0.32, I 1.36 ± 0.29, C 0.695 ± 0.25, S 1.55 ± 0.11, F 1.31 ± 0.23, R 1.56 ± 0.2, W 1.53 ± 0.17, V 1.21 ± 0.27, E 1.53 ± 0.25, K 1.53 ± 0.13, T 1.59 ± 0.16
K423: D 1.14 ± 0.6, G 1.56 ± 0.2, R 1.17 ± 0.14, T 1.57 ± 0.22, A 0.687 ± 0.66, W 1.49 ± 0.15, L 1.45 ± 0.52, Y 1.41 ± 0.29, H 0.899 ± 0.69, F 1.07 ± 0.33, V 1.28 ± 0.41, E 1.62 ± 0.12, C 1.58 ± 0.16, N 1.52 ± 0.34, I 1.25 ± 0.18, S 1.56 ± 0.13, Q 0.701 ± 0.61
C418: L 1.46 ± 0.13, M 1.54 ± 0.14, S 1.51 ± 0.17, D 1.57 ± 0.34, V 1.62 ± 0.19, A 1.62 ± 0.12, I 1.41 ± 0.31, T 1.58 ± 0.15, R 1.54 ± 0.13, G 1.61 ± 0.24, Y 1.6 ± 0.17, H 1.17 ± 0.18, E 1.58 ± 0.14
A414: R 1.58 ± 0.31, V 1.48 ± 0.14, Y 1.58 ± 0.12, W 1.63 ± 0.15, S 1.57 ± 0.18
S428: W 1.62 ± 0.15, V 1.56 ± 0.28, I 1.62 ± 0.22, Y 1.39 ± 0.16, G 1.6 ± 0.32, D 1.21 ± 0.45, T 1.56 ± 0.24, A 1.14 ± 0.54, K 0.386 ± 0.55, N 0.872 ± 0.25, C 1.4 ± 0.17, L 0.874 ± 0.14, E 1.63 ± 0.13, F 1.61 ± 0.12
S419: E 1.24 ± 0.45, N 1.54 ± 0.13, F 1.46 ± 0.18, D 1.1 ± 0.4, G 1.58 ± 0.034, H 1.63 ± 0.18, L 1.17 ± 0.14, I 1.16 ± 0.27, V 0.892 ± 0.23, A 1.37 ± 0.38, Y 1.61 ± 0.027, K 1.39 ± 0.21
C430: F 1.48 ± 0.14, W 1.02 ± 0.59, G 1.55 ± 0.19, V 1.03 ± 0.62, S 1.56 ± 0.34
S421: T 1.12 ± 0.41, E 1.56 ± 0.28, N 1.6 ± 0.15, C 0.549 ± 0.38, R 1.44 ± 0.41, G 1.38 ± 0.21, V 1.38 ± 0.18, K 1.45 ± 0.21, Y 1.61 ± 0.12, L 1.62 ± 0.27, F 1.08 ± 0.5, D 1.62 ± 0.17, I 1.52 ± 0.13
A420: V 1.52 ± 0.21, R 1.51 ± 0.28, G 1.52 ± 0.26, L 1.61 ± 0.16
I424: G 0.657 ± 0.18, C 1.35 ± 0.4, D 1.54 ± 0.2, Q 1.55 ± 0.14, A 1.58 ± 0.27, W 0.789 ± 0.13, M 1.42 ± 0.38, Y 1.12 ± 0.26, F 1.04 ± 0.086, T 1.49 ± 0.18, R 1.5 ± 0.17, S 1.37 ± 0.2, N 1.44 ± 0.4, V 1.33 ± 0.23, L 1.34 ± 0.18, K 1.22 ± 0.33
S422: A 1.5 ± 0.26, I 1.3 ± 0.21, Q 1.58 ± 0.13, F 1.4 ± 0.44, L 1.17 ± 0.12, R 1.47 ± 0.19, Y 1.54 ± 0.15, C 1.44 ± 0.095, G 1.49 ± 0.26, W 1.4 ± 0.15, E 1.49 ± 0.17, K 1.53 ± 0.12, T 0.705 ± 0.26, D 1.59 ± 0.12, V 1.05 ± 0.16, N 0.705 ± 0.48
A429: E 1.55 ± 0.19, D 1.52 ± 0.12, Y 1.49 ± 0.23, V 1.47 ± 0.33, I 1.63 ± 0.27, C 1.62 ± 0.14, R 1.5 ± 0.17, Q 1.56 ± 0.36, G 1.12 ± 0.33, L 1.48 ± 0.15, P 0.559 ± 0.56, K 1.49 ± 0.27, T 0.896 ± 0.4, S 1.29 ± 0.2, W 1.21 ± 0.38
K431: F 1.59 ± 0.28, C 1.59 ± 0.34, L 1.6 ± 0.23, M 1.25 ± 0.51, S 1.64 ± 0.14, Y 1.48 ± 0.18
A417: S 1.25 ± 0.36, C 1.24 ± 0.52, N 1.55 ± 0.18, V 0.845 ± 0.15, H 0.849 ± 0.67, D 1.41 ± 0.36, P 1.2 ± 0.39, T 1.55 ± 0.17, E 1.22 ± 0.18, F 1.15 ± 0.13, R 1.6 ± 0.28, M 1.47 ± 0.12, I 1.51 ± 0.17, L 1.51 ± 0.15, G 1.47 ± 0.26
Q432: D 1.46 ± 0.21, G 1.61 ± 0.27, W 1.59 ± 0.34, R 1.6 ± 0.16, L 1.55 ± 0.15, Y 1.63 ± 0.28
R415: F 0.952 ± 0.52, N 1.58 ± 0.34, L 1.61 ± 0.12, C 1.25 ± 0.14, Y 1.49 ± 0.16, G 1.53 ± 0.18, H 1.6 ± 0.28, K 1.17 ± 0.5, I 0.924 ± 0.23, M 1.4 ± 0.16, D 1.43 ± 0.23, S 1.5 ± 0.27, V 1.57 ± 0.28, W 1.5 ± 0.18, T 0.914 ± 0.57, E 1.48 ± 0.33
R426: A 0.525 ± 0.27, T 1.17 ± 0.53, D 1.42 ± 0.27, Y 1.54 ± 0.26, K 1.49 ± 0.28, G 1.1 ± 0.26, S 1.5 ± 0.26, F 1.3 ± 0.43, H 1.61 ± 0.28, N 1.58 ± 0.27, L 1.4 ± 0.16, V 1.62 ± 0.26, I 1.15 ± 0.49, C 1.12 ± 0.4

Reference: the supplement of paper PMC12338614
